The record followed here is the Immune Epitope Database (IEDB).

As a reminder, the Kd is the concentration at which binding is half-saturated.

Some results are limits rather than exact numbers.

Common to all, as to assay: IEDB peptide-MHC binding, purified MHC/competitive/radioactivity; filed as Kd, often an IC50 or EC50 that approximates it; ≥ and ≤ were set here for values at or beyond the usual limits of such assays
Test [1] concerns the target HLA-A*68:01.
Test [2] deals with HLA-A*03:01.
Test [3] addresses HLA-A*33:01.
The target of test [4] is HLA-A*31:01.
The target in test [5] is HLA-A*11:01.
Setting [6] is: source organism: Mammarenavirus choriomeningitidis.
Where [7] appears, read: source organism: Vaccinia virus WR.
[8] abbreviates: source organism: Lymphocytic choriomeningitis virus (strain Armstrong).
[9] abbreviates: source organism: Mammarenavirus whitewaterense.
The mark [10] stands for this setting: source organism: Dengue virus 3 Martinique/1243/1999.
Where [11] appears, read: source organism: Dengue virus 4 Philippines/H241/1956.
[12] abbreviates: source organism: Dengue virus 1 Brazil/97-11/1997.
Where [13] appears, read: source organism: Dengue virus 2 Jamaica/1409/1983.
Where [14] appears, read: source organism: SARS coronavirus Tor2.
[15] abbreviates: source organism: Mammarenavirus machupoense.

As for SAFNKKHFDH, the Kd in test [1] (setting [6]) is ≥ 36600 nM; in test [2] (setting [6]), ≥ 22300 nM; in test [3] (setting [6]) it was ≥ 28700 nM; in test [4] (setting [6]), 12500 nM; in test [5] (setting [6]), 1250 nM.
In the case of LIVSLCPTKK, the equilibrium dissociation constant (Kd) in test [1] (setting [7]) was 350 nM; in test [2] (setting [7]), 226 nM; in test [3] (setting [7]), ≥ 70000 nM; in test [4] (setting [7]), 11600 nM; in test [5] (setting [7]) it was 56.9 nM.
For NGQFIHFYR, the Kd was 13.9 nM in test [1] (setting [8]); 8350 nM in test [2] (setting [8]); ≥ 50400 nM in test [3] (setting [8]); 3.67 nM in test [4] (setting [8]); 2530 nM in test [5] (setting [8]).
On to GVFKNPCTSH, for which the Kd in test [1] (setting [9]) was ≥ 26000 nM; in test [2] (setting [9]), 6290 nM; in test [3] (setting [9]), ≥ 70000 nM; in test [4] (setting [9]), ≥ 30100 nM; in test [5] (setting [9]), 2690 nM.
Take IVASVNMVSR: the Kd in test [1] (setting [10]) is 6.75 nM.
In the case of TTRMENLLWK, the Kd in test [2] (setting [10]) came to 102 nM; in test [5] (setting [10]) it was 103 nM.
For the sequence KTDFGFYQVK, the dissociation constant Kd in test [2] (setting [11]) came to 27.4 nM; in test [5] (setting [11]) it was 56 nM.
Regarding EVMRSRWSR, the equilibrium dissociation constant (Kd) in test [1] (setting [12]) turned out to be 13.1 nM; in test [3] (setting [12]), 4.12 nM.
Turning to VSLVKKNKK, the Kd in test [1] (setting [7]) is ≥ 27400 nM; in test [2] (setting [7]), ≥ 58500 nM; in test [3] (setting [7]), ≥ 77700 nM; in test [4] (setting [7]) it was 856 nM; in test [5] (setting [7]), 2280 nM.
In the same order, the values of KLGDKGSPYY are 5080 nM, 2.48 nM, ≥ 39400 nM, ≥ 23100 nM and 3570 nM.
In the case of IMKNTTNTRR, the equilibrium dissociation constant (Kd) in test [4] (setting [13]) came out at 13.9 nM.
With GVAMPNLYK, the figures for the dissociation constant Kd in test [1] (setting [14]), in test [3] (setting [14]) and in test [4] (setting [14]) were 6.9 nM, 14800 nM and 1650 nM, respectively.
On to GILARWSSFK, for which the dissociation constant (Kd) stood at 2.06 nM in test [2] (setting [12]) and 29.4 nM in test [5] (setting [12]).
For the sequence GTMKIKDEER, the Kd in test [1] (setting [12]) amounted to 165 nM.
As to MSLYMAISPK, the Kd in test [1] (setting [14]) amounted to 10.7 nM; in test [2] (setting [14]), 0.256 nM; in test [3] (setting [14]) it was 1870 nM; in test [4] (setting [14]), 69.4 nM; in test [5] (setting [14]), 0.199 nM.
As for VTFRERYSY, the Kd was 106 nM in test [1] (setting [7]); 56.5 nM in test [2] (setting [7]); ≥ 5000 nM in test [3] (setting [7]); 81.9 nM in test [4] (setting [7]); 4.5 nM in test [5] (setting [7]).
As for LMTLMKGASR, in test [4] (source organism: Dengue virus 4 Dominica/814669/1981), the Kd worked out at 72.6 nM.
Turning to VFHLYLQYIR, the Kd in test [1] (setting [14]) came to 868 nM; in test [2] (setting [14]) it was 713 nM; in test [3] (setting [14]) it was 174 nM; in test [4] (setting [14]), 56.3 nM; in test [5] (setting [14]), 1150 nM.
For DTNLITCNDH, the dissociation constant (Kd) in test [1] (setting [15]) is ≥ 70100 nM; in test [2] (setting [15]), ≥ 70000 nM; in test [3] (setting [15]) it was ≥ 30800 nM; in test [4] (setting [15]) it was ≥ 70000 nM; in test [5] (setting [15]) it was ≥ 69700 nM.
As for KSNILMWNK, the Kd turned out to be 2870 nM in test [1] (setting [7]); 27.5 nM in test [2] (setting [7]); 13700 nM in test [3] (setting [7]); 1.01 nM in test [4] (setting [7]); 2.25 nM in test [5] (setting [7]).
For RSTAIKVTK the same measures were 13.9 nM, 214 nM, 11200 nM, 1.26 nM and 6.77 nM.
For NTPVSMTYLY the same measures were 415 nM, ≥ 45500 nM, ≥ 70000 nM, ≥ 70000 nM and 1400 nM.
In the same order, the values of SSESLVYGIR are 475 nM, ≥ 34800 nM, 623 nM, 780 nM and 476 nM.
In the case of AAIDGEYRLK, in test [5] (setting [10]), the dissociation constant (Kd) was 349 nM.
For FMLIFNVKSK, the equilibrium dissociation constant (Kd) in test [1] (setting [7]) was found to be 37.7 nM; in test [2] (setting [7]), 211 nM; in test [3] (setting [7]), 19400 nM; in test [4] (setting [7]), 6050 nM; in test [5] (setting [7]), 3430 nM.
Consider GTVTMECSPR, for which the Kd in test [1] (setting [13]) was found to be 89 nM.
As for EMILMKMKK, the Kd in test [1] (setting [11]) was determined as 74.2 nM.
NFFVFIHMVR: the Kd came to 0.996 nM in test [1] (setting [7]); 174 nM in test [2] (setting [7]); 7.99 nM in test [3] (setting [7]); 18.6 nM in test [4] (setting [7]); 718 nM in test [5] (setting [7]).
Regarding TWMSAEGAWR, the dissociation constant Kd is 375 nM in test [3] (setting [10]) and 248 nM in test [4] (setting [10]).
As for IISRTRLYDY, the Kd is 4360 nM in test [1] (setting [7]); 225 nM in test [2] (setting [7]); ≥ 70000 nM in test [3] (setting [7]); 13200 nM in test [4] (setting [7]); 1270 nM in test [5] (setting [7]).
As to AIDRQVSVK, the dissociation constant (Kd) was 11300 nM in test [1] (setting [7]); 144 nM in test [2] (setting [7]); ≥ 77700 nM in test [3] (setting [7]); 4370 nM in test [4] (setting [7]); 42.1 nM in test [5] (setting [7]).
